Residue numbers refer to the chain shown, from its start. Names may count otherwise.
Legend:
[1] = biological target: the molecule itself; assay: gel filtration chromatography with dTomato (dimer) and mCherry (monomer) as size standards (self-association)
Description: (§1) FIG. 4: Characterization of mTFP1 by Gel Filtration Chromatography. Gel filtration chromatography elution profile with detection at either 450 nm or 550 nm. The upper profile is a co-injection of dTFP0.2 and mCherry (Shaner, 2004) (a red monomer), the middle profile is dTomato (Shaner, 2004) (a red dimer) and mTFP1, and the lower profile is mTFP1 alone. The small 450 nm peak at the dimer elution volume is due to the weak absorbance of dTomato at this wavelength.
(§2) The non-oligomeric structure of mTFP variants was determined by gel filtration chromatography on a HiLoad 16/60 Superdex 75 pg gel filtration column. Samples of the dimeric dTomato and the monomeric mCherry proteins (Shaner, 2004) were expressed and purified as described above and used as size standards. The AKTA basic liquid chromatography system (GE Healthcare) can monitor multiple wavelengths simultaneously. Purified TFP variants were mixed with either dTomato or mcherry and their respective elution profiles monitored separately at 450 nm and 550 nm, respectively.

[2] = biological target: the molecule itself; assay: self-association (homodimer); gel filtration chromatography (FIG. 4)
Description: as §1, §2

[3] = biological target: the molecule itself; assay: gel filtration chromatography (self-association)
Experimental: as §2

B1: mTFP1 (other)
chain: MVSKGEETTMGVIKPDMKIKLKMEGNVNGHAFVIEGEGEGKPYDGTNTINLEVKEGAPLPFSYDILTTAFAYGNRAFTKYPDDIPNYFKQSFPEGYSWERTMTFEDKGIVKVKSDISMEEDSFIYEIHLKGENFPPNGPVMQKKTTGWDASTERMYVRDGVLKGDVKHKLLLEGGGHHRVDFKTIYRAKKAVKLPDYHFVDHRIEILNHDKDYNKVTVYESAVARNSTDGMDELYK
notes: Engineered monomeric teal fluorescent protein derived from Clavularia cFP484; Expressed from pBAD/HisB and purified on Ni-NTA; also called mTFP1.0
B1: no binding [1].

B2: dTFP0.2 (other)
chain: MVSKGEETTMGVIKPDMKIKLKMEGNVNGHAFVIEGEGEGKPYDGTNTVNLEVKEGAPLPFSYDILSNAFQYGNRAFTKYPDDIANYFKQSFPEGYSWERTMTFEDKGIVKVKSDISMEEDSFIYEIRLKGKNFPPNGPVMQKKTLKWEPSTEILYVRDGVLVGDISHSLLLEGGGHYRCDFKTIYKAKKVVKLPDYHFVDHRIEILNHDKDYNKVTLYENAVARYSLLPPQAGMDELYK
notes: dTFP0.1 with D81N and S226P; Vector His tag probably present; also called dTFP0.20
B2: binds [2].

B3: mTFP0.3 (other)
chain: B2 chain with S167K, S169K
notes: dTFP0.2 with S162K and S164K; reported as a monomer; Substitution positions follow the DsRed-consistent numbering; Vector His tag probably present
B3: no binding [3].

Source: US20090170194A1 (GOVERNORS OF THE UNIVERSITY OF ALBERTA, published 2009)
